{
  "source": "patent US20240082183",
  "key": {"[1]": {"target": "mutated SDHA protein with His Tag (mouse; Ile-Glu-Asp-Gly changed to Ile-Glu-Ala-Gly at the putative GzmB cleavage site), Q8K2B3", "sequence (Q8K2B3 whole entry, looked up, change not shown)": "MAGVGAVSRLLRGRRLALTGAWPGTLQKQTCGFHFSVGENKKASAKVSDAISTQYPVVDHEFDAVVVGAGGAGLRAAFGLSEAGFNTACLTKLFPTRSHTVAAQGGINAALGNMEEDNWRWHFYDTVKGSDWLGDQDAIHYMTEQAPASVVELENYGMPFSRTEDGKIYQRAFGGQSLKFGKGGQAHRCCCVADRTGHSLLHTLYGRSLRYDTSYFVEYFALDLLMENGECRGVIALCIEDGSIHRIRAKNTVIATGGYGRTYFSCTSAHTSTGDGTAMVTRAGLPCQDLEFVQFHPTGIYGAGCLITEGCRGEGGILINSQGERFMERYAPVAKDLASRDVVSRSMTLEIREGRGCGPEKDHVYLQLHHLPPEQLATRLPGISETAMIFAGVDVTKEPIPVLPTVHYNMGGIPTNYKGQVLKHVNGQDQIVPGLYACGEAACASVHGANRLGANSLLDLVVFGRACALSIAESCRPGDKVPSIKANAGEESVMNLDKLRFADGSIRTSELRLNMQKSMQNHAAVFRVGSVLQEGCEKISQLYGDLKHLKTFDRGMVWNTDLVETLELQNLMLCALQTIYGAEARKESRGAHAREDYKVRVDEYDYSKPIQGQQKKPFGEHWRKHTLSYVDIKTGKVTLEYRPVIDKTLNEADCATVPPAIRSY"}, "[2]": {"target": "SDHA (endogenous, in mitochondria isolated from mouse IECs and in C57BL/6 primary colonic epithelial cells), Q8K2B3", "sequence (Q8K2B3 43-664)": "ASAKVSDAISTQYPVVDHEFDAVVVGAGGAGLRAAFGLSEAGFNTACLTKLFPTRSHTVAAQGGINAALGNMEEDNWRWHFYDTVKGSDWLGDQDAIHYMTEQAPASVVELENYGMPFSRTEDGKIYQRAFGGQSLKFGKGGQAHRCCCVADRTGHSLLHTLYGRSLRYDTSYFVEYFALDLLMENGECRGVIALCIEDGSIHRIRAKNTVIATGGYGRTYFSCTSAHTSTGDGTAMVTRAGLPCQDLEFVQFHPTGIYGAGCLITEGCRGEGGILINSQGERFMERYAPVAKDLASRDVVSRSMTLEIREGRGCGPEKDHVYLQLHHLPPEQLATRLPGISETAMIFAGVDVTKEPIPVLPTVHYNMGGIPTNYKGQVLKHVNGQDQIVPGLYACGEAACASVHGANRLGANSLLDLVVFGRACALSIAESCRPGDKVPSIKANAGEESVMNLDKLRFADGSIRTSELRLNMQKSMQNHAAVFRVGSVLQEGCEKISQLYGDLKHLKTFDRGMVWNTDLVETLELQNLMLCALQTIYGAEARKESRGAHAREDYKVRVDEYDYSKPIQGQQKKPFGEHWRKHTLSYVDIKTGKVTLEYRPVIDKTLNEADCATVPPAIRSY"}},
  "data": [
    {"protein": "recombinant mouse Granzyme B (protein) IIGGHEVKPHSRPYMALLSIKDQQPEAICGGFLIREDFVLTAAHCEGSIINVTLGAHNIKEQEKTQQVIPMVKCIPHPDYNPKTFSNDIMLLKLKSKAKRTRAVRPLNLPRRNVNVKPGDVCYVAGWGRMAPMGKYSNTLQEVELTVQKDRECESYFKNRYNKTNQICAGDPKTKRASFRGDSGGPLVCKKVAAGIVSYGYKDGSPPRAFTKVSSFLSWIKKTMKSS", "values": [
      {"measurement": "proteolysis of mutated SDHA protein (anti-His immunoblot, 6 hours)", "setting": "[1]", "result": "the mutation of the cleavage site prevented proteolysis of SDHA by GzmB"},
      {"measurement": "proteolysis of SDHA by GzmB in PCECs treated with perforin, Granzyme B and Serpin 3A for 6 hours (immunoblot of SDHA)", "setting": "Serpin 3A", "result": "The presence of Serpin 3A prevented the proteolysis of SDHA by GzmB"},
      {"measurement": "proteolysis of SDHA in isolated IEC mitochondria (immunoblot of full length and cleaved SDHA)", "setting": "[2]", "result": "Treatment with GzmB caused proteolysis of SDHA with a reduction in SDHA with an increase in SDHA cleaved fragments"}
    ]}
  ]
}
